Numbering of substitutions follows the chain as printed.
Experiments:
[1] = biological target: T1, SARS-CoV-2 spike S1 subunit (SARS-CoV-2, UniProt P0DTC2 SEQ:1-670); experiment: BLI; conditions: tags: His tag, SinoBiological 40591-V08B1; label: 5'-biotin
SARS-CoV-2 spike RBD = SARS-CoV-2 spike RBD (SARS-CoV-2, UniProt P0DTC2 SEQ:1-223); experiment: BLI; conditions: tags: His tag, SinoBiological 40592-V08H
[2] = biological target: SARS-CoV spike S1 subunit (SARS-CoV, UniProt P59594 SEQ:14-667); experiment: BLI; conditions: tags: SinoBiological
[3] = biological target: SARS-CoV-2 spike protein trimer (SARS-CoV-2, UniProt P0DTC2); experiment: ELONA
Procedure: One ELONA plate (immobilised with the S1 binding aptamer A3) was then incubated with a fixed concentration (0.5 μM) of either the aptamer population isolated against the S2 subunit of the SARS-CoV-2 spike protein (S2_8R pool) or full-length aptamer clones S2_A2 (SEQ ID NO: 146), S2_B1 (SEQ ID NO: 150) and S2_G1 (SEQ ID NO: 171) (FIG. 16).

[4] = biological target: SARS-CoV-2 spike S2 subunit (SARS-CoV-2, UniProt P0DTC2 SEQ:1-528); experiment: BLI; conditions: label: 5'-biotin
[5] = biological target: T1, SARS-CoV-2 spike S1 subunit; experiment: BLI; conditions: tags: His tag, SinoBiological 40591-V08B1; label: 5'-biotin; remark: listed apart in the source
Procedure: The affinity of four chosen aptamers (aptamer S1_A3-A (SEQ ID NO: 4); aptamer S1_A6 (SEQ ID NO: 8); aptamer S1_A8 (SEQ ID NO: 9); aptamer S1_F2 (SEQ ID NO: 43)) was determined using the BLI assay according to the protocol described above. The biotinylated aptamers were immobilised onto streptavidin biosensor probes (as described above) and then interaction monitored with a concentration series of SARS-CoV-2 Spike protein S1 (250 nM, 125 nM, 62.5 nM, 31.25 nM, 15.63 nM, 7.81 nM, 0 nM diluted in 1× ‘high salt’ aptamer selection buffer). KD values were calculated using the ForteBio software (ForteBio Data Analysis 8.0,), using a 2:1 binding model (FIGS. 6 & 7).

B1: S1_F5 (ssDNA)
DNA: CCAGTGTAGACTACTCAATGCGTGTGGTAACCTTGACCTTGGATTATGGGTTTGGGCGGGCGGGTACTATCCACAGGTCAACC
Does B1 bind [1]?
Result: binds

Does B1 bind (SARS-CoV-2 spike RBD; label: 5' biotin)?
Result: binds

Does B1 bind ([2]; label: 5' biotin)?
Result: no binding

B2: S1_E2 (ssDNA)
DNA: CCAGTGTAGACTACTCAATGCGTGTGGTGACCTTGACCTCTGGATATGGGTGGGAGGGGCGGGTACTATCCACAGGTCAACC
Does B2 bind [1]?
Result: binds

Does B2 bind (SARS-CoV-2 spike RBD; label: 5' biotin)?
Result: binds

Does B2 bind ([2]; label: 5' biotin)?
Result: no binding

B3: S1_C12 (ssDNA)
DNA: CCAGTGTAGACTACTCAATGCGTGGGAAGGGTGGGTGGGAGCATTGATAACTCGGAGGAGCGTACTATCCACAGGTCAACC
Which results are given for B3?
binding result [1]: binds; binding result (SARS-CoV-2 spike RBD; label: 5' biotin): binds; binding result ([2]; label: 5' biotin): no binding

B4: S1_F3-B (ssDNA)
DNA: B3 DNA with A28T
Does B4 bind [1]?
Result: binds

Does B4 bind (SARS-CoV-2 spike RBD; label: 5' biotin)?
Result: binds

Does B4 bind ([2]; label: 5' biotin)?
Result: no binding

B5: S1_F12 (ssDNA)
DNA: B3 DNA with T32A, T36C
Does B5 bind [1]?
Result: binds

Does B5 bind (SARS-CoV-2 spike RBD; label: 5' biotin)?
Result: binds

Does B5 bind ([2]; label: 5' biotin)?
Result: no binding

B6: S1_C11 (ssDNA)
DNA: CCAGTGTAGACTACTCAATGCCGTGGACTGGTCGGGTTTGGATTCGGCAGATGAATCCAGTAGTACTATCCACAGGTCAACC
Does B6 bind [1]?
Result: binds

Does B6 bind (SARS-CoV-2 spike RBD; label: 5' biotin)?
Result: binds

Does B6 bind ([2]; label: 5' biotin)?
Result: no binding

B7: S2_A2 (ssDNA)
DNA: CCAGTGTAGACTACTCAATGCCGATGGGTCGGGGGGGTGGGTAGGCATTGATCGCTCCTTTCGTACTATCCACAGGTCAACC
Which results are given for B7?
binding result [3]: binds; binding result [4]: binds

B8: S1_C3-B (ssDNA)
DNA: B7 DNA with T61C
Does B8 bind [1]?
Result: binds

Does B8 bind (SARS-CoV-2 spike RBD; label: 5' biotin)?
Result: binds

Does B8 bind ([2]; label: 5' biotin)?
Result: no binding

B9: S1_A6 (ssDNA)
DNA: CCAGTGTAGACTACTCAATGCTGTTATGACTTGACCTTGGGTTATGGGTTTGGGCGGGAGGGTACTATCCACAGGTCAACC
Does B9 bind (SARS-CoV-2 spike RBD; label: 5'-biotin)?
Result: binds

Does B9 bind ([2]; label: 5'-biotin)?
Result: no binding

Does B9 bind [5]?
Result: binds

B10: S1_E10 (ssDNA)
DNA: B9 DNA with T25G, A26T, G41A
Does B10 bind [1]?
Result: binds

Does B10 bind (SARS-CoV-2 spike RBD; label: 5' biotin)?
Result: binds

Does B10 bind ([2]; label: 5' biotin)?
Result: no binding

B11: S1_F3-A (ssDNA)
DNA: CCAGTGTAGACTACTCAATGCGGTATGAATATGATCGGCCCTATCCCTTCAGCTATTCCGGGTACTATCCACAGGTCAACC
What does the source list for B11?
binding result [1]: binds; binding result (SARS-CoV-2 spike RBD; label: 5' biotin): binds; binding result ([2]; label: 5' biotin): no binding

B12: S1_D4 (ssDNA)
DNA: CCAGTGTAGACTACTCAATGCGGCTTCGGGAGGGGGGGCGGGTAAAAAGCCCATTGCCCTAGTACTATCCACAGGTCAACC
Which results are given for B12?
binding result [1]: binds; binding result (SARS-CoV-2 spike RBD; label: 5' biotin): binds; binding result ([2]; label: 5' biotin): no binding

B13: S1_E9 (ssDNA)
DNA: B12 DNA with G29A, C50T
Does B13 bind [1]?
Result: binds

Does B13 bind (SARS-CoV-2 spike RBD; label: 5' biotin)?
Result: binds

Does B13 bind ([2]; label: 5' biotin)?
Result: no binding

B14: S2_A2_F12 (ssDNA)
DNA: CCAGTGTAGACTACTCAATGCCGATGGGTCGGGGGGGTGGGTAGGCATTGATCGCTCCTTTCGT
Does B14 bind [4]?
Result: binds

B15: S2_G1_F21 (ssDNA)
DNA: TTGACCTCTGGATATGGGTGGGAGGGATGGGT
Does B15 bind [4]?
Result: binds

B16: S1_D2 (ssDNA)
DNA: CCAGTGTAGACTACTCAATGCTAGGTCCGTGGGATGGGTGGGGGGGAGGACCAGCCAGCGAGTACTATCCACAGGTCAACC
Does B16 bind [1]?
Result: binds

Does B16 bind (SARS-CoV-2 spike RBD; label: 5' biotin)?
Result: binds

Does B16 bind ([2]; label: 5' biotin)?
Result: no binding

B17: S1_F2 (ssDNA)
DNA: CCAGTGTAGACTACTCAATGCTGCGTTGACTTGATCCTGTGGTATATGGGTGGGAGGGTCGGGTACTATCCACAGGTCAACC
Does B17 bind (SARS-CoV-2 spike RBD; label: 5'-biotin)?
Result: binds

Does B17 bind ([2]; label: 5'-biotin)?
Result: no binding

Does B17 bind [5]?
Result: binds

B18: S1_A8 (ssDNA)
DNA: B17 DNA with C24T
Does B18 bind (SARS-CoV-2 spike RBD; label: 5'-biotin)?
Result: binds

Does B18 bind ([2]; label: 5'-biotin)?
Result: no binding

Does B18 bind [5]?
Result: binds

B19: S2_B1_F12 (ssDNA)
DNA: CCAGTGTAGACTACTCAATGCCGTGGACTGGTCGGGTTTGGATTCGGCAGATGAATCAGTAGTA
Does B19 bind [4]?
Result: binds

B20: S1_C4 (ssDNA)
DNA: CCAGTGTAGACTACTCAATGCTACTGATTCATCTGCCGAATCCAAACCCGACCAGTCCACGGTACTATCCACAGGTCAACC
Does B20 bind [1]?
Result: binds

Does B20 bind (SARS-CoV-2 spike RBD; label: 5' biotin)?
Result: binds

Does B20 bind ([2]; label: 5' biotin)?
Result: no binding

B21: S1_D1 (ssDNA)
DNA: CCAGTGTAGACTACTCAATGCATTCCTTTTGCTACCTATATTCCGTCTCCAGCATAATCCCGTACTATCCACAGGTCAACC
Does B21 bind [1]?
Result: binds

Does B21 bind (SARS-CoV-2 spike RBD; label: 5' biotin)?
Result: binds

Does B21 bind ([2]; label: 5' biotin)?
Result: no binding

B22: S2_B1 (ssDNA)
DNA: CCAGTGTAGACTACTCAATGCCGTGGACTGGTCGGGTTTGGATTCGGCAGATGAATCAGTAGTACTATCCACAGGTCAACC
Does B22 bind [3]?
Result: binds

Does B22 bind [4]?
Result: binds

B23: S1_D8 (ssDNA)
DNA: B22 DNA with C2A, A3G, G4T, T5G, G6T, T7A
Which results are given for B23?
binding result [1]: binds; binding result (SARS-CoV-2 spike RBD; label: 5' biotin): binds; binding result ([2]; label: 5' biotin): no binding

B24: S1_F11 (ssDNA)
DNA: CCAGTGTAGACTACTCAATGCGTGGGAAGGGTGGGCGGGAGCATTGATAACTTCGGAGGAGCGTACTATCCACAGGTCAACC
Does B24 bind [1]?
Result: binds

Does B24 bind (SARS-CoV-2 spike RBD; label: 5' biotin)?
Result: binds

Does B24 bind ([2]; label: 5' biotin)?
Result: no binding
